Test results reported in publication PMC12493170, “Functional and structural characterization of AtAbf43C: an exo-1,5-α-L-arabinofuranosidase from Acetivibrio thermocellus DSM1313” (Biochemical Journal, 2025).

B1: AtAbf43C (Acetivibrio thermocellus ATCC 27405) (protein)
chain: TGADGAIAKLQSYNYSHMYIRNANFDVRIDDNVTPETDAQWVLVPGLANSGEGYVSIQSVDHLGYYLRHWNYDFRLEKNDGTRIFAEDATFKMVPGLADPSYTSFQSYNYPTRYIRHYNYLLRLDEIVTALDREDATFRVIDSSSVDPDKADDSVIVTNPIVRRRADPWVYRHTDGYYYMTASVPEYDRIELRRSRTLQGLSTATPKTIWRRHSSGIMGGHIWAPEIHFIDGKWYIYFSAGTSTNYFDIRLYVLECSDSNPLTGTWVEKGQLKTNWESFTLDATTFEHNGTRYLVWAQKDPKIASNSNIYIAKMNGPLAITGNQVMISTPEYSWEKIGYAVNEGPAVLKKNGKIFITFSASATDANYCMGLLTASDTANLLDPKSWHKSPNPVFQSNPSTGQYGPGHNSFTTSPDGKVDIMVYHARNYRDITGDPLYDPNRHTRAQIVNWNADGTPDFGIPVADGTNVIYIPPQTPTPIPTNSPTPSDLIY
notes: residues 21-511 of 580, no signal peptide or dockerin I domain, C-terminal LEHHHHHH tag, pET28b(+), E. coli BL21(DE3) Rosetta2
B2: AtAbf43C_GH43 (Acetivibrio thermocellus ATCC 27405) (protein)
chain: DPDKADDSVIVTNPIVRRRADPWVYRHTDGYYYMTASVPEYDRIELRRSRTLQGLSTATPKTIWRRHSSGIMGGHIWAPEIHFIDGKWYIYFSAGTSTNYFDIRLYVLECSDSNPLTGTWVEKGQLKTNWESFTLDATTFEHNGTRYLVWAQKDPKIASNSNIYIAKMNGPLAITGNQVMISTPEYSWEKIGYAVNEGPAVLKKNGKIFITFSASATDANYCMGLLTASDTANLLDPKSWHKSPNPVFQSNPSTGQYGPGHNSFTTSPDGKVDIMVYHARNYRDITGDPLYDPNRHTRAQIVNWNADGTPDFGIPVADGTNVIYIPPQ
notes: isolated GH43 catalytic domain, residues 167-494, no CBM42, cloned in pET28b(+) and IMAC-purified, E. coli BL21(DE3) Rosetta2

How the values were obtained:
[1] = molecular target: T1, AtAbf43C (Acetivibrio thermocellus, UniProt A3DHB3, D302A); test: pNP release at […] nm, activity relative to wild type; type: biochemical; details: 5 mM substrate, pH 5.5 sodium acetate, 65 °C, 10 min; catalytic residue
T1 construct: gene Cthe_2138; residues 21-511 of 580, no signal peptide or dockerin I domain, C-terminal LEHHHHHH tag, pET28b(+), E. coli BL21(DE3) Rosetta2
T1 sequence (A3DHB3 entry or part of it D302A): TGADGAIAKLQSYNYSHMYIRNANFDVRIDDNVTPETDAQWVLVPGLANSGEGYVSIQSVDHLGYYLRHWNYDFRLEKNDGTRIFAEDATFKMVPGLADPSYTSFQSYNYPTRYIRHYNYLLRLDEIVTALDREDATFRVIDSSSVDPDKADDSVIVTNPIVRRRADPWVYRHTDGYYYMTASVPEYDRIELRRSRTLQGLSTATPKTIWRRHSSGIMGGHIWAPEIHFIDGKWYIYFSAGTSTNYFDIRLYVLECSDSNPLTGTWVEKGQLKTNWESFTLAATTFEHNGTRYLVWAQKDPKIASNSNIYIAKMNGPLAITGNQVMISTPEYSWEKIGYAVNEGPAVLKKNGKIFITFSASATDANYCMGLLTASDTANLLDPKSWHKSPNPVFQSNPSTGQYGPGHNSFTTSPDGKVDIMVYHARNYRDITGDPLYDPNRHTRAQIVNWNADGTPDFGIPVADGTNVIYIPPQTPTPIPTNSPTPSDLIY

[2] = molecular target: T2, AtAbf43C (Acetivibrio thermocellus, UniProt A3DHB3, D187A); test: as above; type: biochemical; details: 5 mM substrate, pH 5.5 sodium acetate, 65 °C, 10 min; catalytic residue
T2 construct: gene Cthe_2138; residues 21-511 of 580, no signal peptide or dockerin I domain, C-terminal LEHHHHHH tag, pET28b(+), E. coli BL21(DE3) Rosetta2
T2 sequence (A3DHB3 entry or part of it D187A): as the sequence (A3DHB3 entry or part of it D302A) above, with D167A, A282D counted along it

[3] = molecular target: T3, AtAbf43C (Acetivibrio thermocellus, UniProt A3DHB3, E363A); test: as above; type: biochemical; details: 5 mM substrate, pH 5.5 sodium acetate, 65 °C, 10 min; catalytic residue
T3 construct: gene Cthe_2138; residues 21-511 of 580, no signal peptide or dockerin I domain, C-terminal LEHHHHHH tag, pET28b(+), E. coli BL21(DE3) Rosetta2
T3 sequence (A3DHB3 entry or part of it E363A): as the sequence (A3DHB3 entry or part of it D302A) above, with A282D, E343A counted along it

[4] = substrate: O=[N+]([O-])c1ccc(O[C@@H]2O[C@@H](CO)[C@H](O)[C@H]2O)cc1; test: purified protein; type: biochemical, Acetivibrio thermocellus; details: pH 5.5, 100 mM sodium acetate, 65 °C, 2 min, 0.9-36 mM substrate, full saturation not achieved

Row | Molecule | % activity relative to wildtype [1] | % activity relative to wildtype [2] | % activity relative to wildtype [3] | Km [4] [mM] | kcat [4] [s⁻¹] | kcat/Km [4] [M⁻¹ s⁻¹]
1 | O=[N+]([O-])c1ccc(O[C@@H]2O[C@@H](CO)[C@H](O)[C@H]2O)cc1 [pNPAra, para-nitrophenol-α-L-arabinofuranoside] | activity on pNPAra was completely eliminated in any of the versions | activity on pNPAra was completely eliminated in any of the versions | activity on pNPAra was completely eliminated in any of the versions | – | – | –
2 | B1 | – | – | – | 22.7 ± 4.1 | 269 ± 25.5 | 11900 ± 2400
3 | B2 | – | – | – | 59.6 ± 12.1 | 238 ± 33.4 | 4000 ± 1000
